Laboratory results reported in publication PMC10017365, “Functional characterization of Vip3Aa from Bacillus thuringiensis reveals the contributions of specific domains to its insecticidal activity” (The Journal of Biological Chemistry, 2023).

Tests used:
[1] = target: Vip3Aa (full-length Vip3Aa protoxin, from Bacillus thuringiensis 9816C) (Bacillus thuringiensis 9816C); assay: SEC + other: dynamic light scattering; purified proteins on a Superdex 200 Increase 10/300 GL column; DLS of the same proteins (Fig. S2A)
[2] = target: Vip3Aa DI-DIII (domain I to domain III truncation variant, untreated) (Bacillus thuringiensis 9816C); assay: SEC; trypsin-treated proteins (1:50 wt:wt, 4 °C, 6 h) on Superdex 200 Increase 10/300 GL, peak fractions analysed by SDS-PAGE; untreated DI-DIV and DI-DIII as controls
[3] = target: trypsin-activated Vip3Aa DI-DIII (DI-DIII^act) (Bacillus thuringiensis 9816C); assay: as above

Vip3Aa (full-length Vip3Aa protoxin, from Bacillus thuringiensis 9816C) (natural protein)
stoichiometry N [1]: 4

Vip3Aa DI-DIII (domain I to domain III truncation variant, untreated) (domain or fragment)
stoichiometry N [2]: 4

trypsin-activated Vip3Aa DI-DIII (DI-DIII^act) (complex)
stoichiometry N [3]: 4
